Results taken from publication PMC10037535.

Biological target: F-4p-18mer-tail (synthetic fluorescein-labeled tetraphosphorylated PTEN C-tail peptide)
Assay: fluorescence polarisation

Question: “VSP Asp mutants of the active site Lys residues (Lys364 and Lys367) (domain or fragment)” was tested. Which fold weakening of the phospho-tail interaction against wild-type VSP did it give?
Answer: Its fold weakening of the phospho-tail interaction against wild-type VSP is 3.4 fold.
